Assay [1] deals with green fluorescent protein (GFP), recombinant (Aequorea victoria) [GFP: P42212]. Description: SPR, GFP immobilised. (SPR reads the build-up and loss of mass on a sensor chip optically.)
The target is the same in assay [2]. Kind of assay: SPR, GFP immobilised; reference LaG-16 or LaG-2 alone.
For assay [3], the target named is GFP-tagged Nup84 (budding yeast) (budding yeast) (UniProt P52891). Description: time course of yeast Nup84-GFP isolation on magnetic beads.

One may read the Kd as the equilibrium constant for the complex coming apart.

As to “LaG16-LaG2 fusion with a flexible glycine-rich linker”, the Kd in assay [1] was 0.036 nM. For the same substance, the fold lower Kd than either LaG alone in assay [2] is 20 fold. In assay [3], this substance displayed a percent of maximum yield after 5 minutes of 80% and a percent of maximum yield after 10 minutes of 90%.

The record behind these values is patent publication US20240002475A1.
